In this experiment the target is receptor for advanced glycation end products (RAGE) (human (endogenous in HPAEC)) (UniProt Q15109).
Chain of UniProt Q15109 (Q15109 23-404): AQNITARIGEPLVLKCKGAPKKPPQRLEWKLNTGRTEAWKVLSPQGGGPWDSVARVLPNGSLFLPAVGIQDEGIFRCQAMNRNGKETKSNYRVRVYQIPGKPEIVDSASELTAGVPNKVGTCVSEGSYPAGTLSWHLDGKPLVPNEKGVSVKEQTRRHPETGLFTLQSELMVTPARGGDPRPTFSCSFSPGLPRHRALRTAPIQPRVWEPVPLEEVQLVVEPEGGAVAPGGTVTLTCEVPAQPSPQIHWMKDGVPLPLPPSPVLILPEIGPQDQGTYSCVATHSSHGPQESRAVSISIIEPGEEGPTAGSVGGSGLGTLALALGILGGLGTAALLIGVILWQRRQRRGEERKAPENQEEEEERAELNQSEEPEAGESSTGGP

In the case of “recombinant high mobility group box-1 (HMGB1) (from UniProt P09429 1-215) (ligand)”, the ET-1 release from HPAECs induced by HMGB1 (40 ng/ml), ELISA of the culture supernatant, with anti-RAGE antibody (ab3611; Abcam; 1 μg/ml) co-treated came to 349 pg/mL.
